The assay has as its target SV40 large T (SV40), P03070. The assay can be described thus: biotinylated row protein on streptavidin beads, 35S column protein counted. The note with it: remark: other sources report otherwise.

B1: p53, P02340 1-390 (protein)
chain: MTAMEESQSDISLELPLSQETFSGLWKLLPPEDILPSPHCMDDLLLPQDVEEFFEGPSEALRVSGAPAAQDPVTETPGPVAPAPATPWPLSSFVPSQKTYQGNYGFHLGFLQSGTAKSVMCTYSPPLNKLFCQLAKTCPVQLWVSATPPAGSRVRAMAIYKKSQHMTEVVRRCPHHERCSDGDGLAPPQHLIRVEGNLYPEYLEDRQTFRHSVVVPYEPPEAGSEYTTIHYKYMCNSSCMGGMNRRPILTIITLEDSSGNLLGRDSFEVRVCACPGRDRRTEEENFRKKEVLCPELPPGSAKRALPTCTSASPPQKKKPLDGEYFTLKIRGRKRFEMFRELNEALELKDAHATEESGDSRAHSSYLKTKKGQSTSRHKKTMVKKVGPDSD
modifications: here or on the partner: 35S-methionine label or biotinylated lysine, by its role in the assay
For B1, the RI (c.p.m.) is 884 c.p.m.

Values taken from patent US7122382.
